Measurements: patent publication US20250326807A1 (published 2025)
Where two headings read alike, the source gives them in different places. Ends that are not written are not given here.

How the values were obtained:
F8 D-Ala = assay: SPR
Y16 β-Ala = assay: SPR
Q12 β-Ala = assay: SPR
Q12 D-Ala = assay: SPR
Y16 D-Ala = assay: SPR
M10 D-Ala = assay: SPR
F11 β-Ala = assay: SPR
M10 β-Ala = assay: SPR
F8 β-Ala = assay: SPR
P9 D-Ala = assay: SPR
P9 β-Ala = assay: SPR
F11 D-Ala = assay: SPR
[1] = biological target: T1, Recombinantly expressed fused calprotectin (His6-linker-S100A9-linker-S100A8), product code B-RCAL, BÜHLMANN … (human, UniProt P06702 1-114; P05109 1-93); assay: fluorescence polarization
T1 chain: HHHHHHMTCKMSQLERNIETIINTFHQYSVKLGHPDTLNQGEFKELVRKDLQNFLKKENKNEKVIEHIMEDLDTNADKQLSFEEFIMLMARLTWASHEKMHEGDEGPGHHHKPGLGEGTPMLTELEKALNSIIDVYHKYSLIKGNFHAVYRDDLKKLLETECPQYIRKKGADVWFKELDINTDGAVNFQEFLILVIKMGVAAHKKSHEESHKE

[2] = biological target: T1, Recombinantly expressed fused …; assay: fluorescence polarization
[3] = biological target: T1, Recombinantly expressed fused …; assay: fluorescence polarization
[4] = biological target: T1, Recombinantly expressed fused …
[5] = biological target: T1, Recombinantly expressed fused …; assay: fluorescence polarization
[6] = biological target: T1, Recombinantly expressed fused …; assay: fluorescence polarization

B1: calprotectin (other)
chain: HHHHHHMTCKMSQLERNIETIINTFHQYSVKLGHPDTLNQGEFKELVRKDLQNFLKKENKNEKVIEHIMEDLDTNADKQLSFEEFIMLMARLTWASHEKMHEGDEGPGHHHKPGLGEGTPMLTELEKALNSIIDVYHKYSLIKGNFHAVYRDDLKKLLETECPQYIRKKGADVWFKELDINTDGAVNFQEFLILVIKMGVAAHKKSHEESHKE
- Kd (F8 D-Ala): > 10000 nM
- Kd (Y16 β-Ala): > 10000 nM
- Kd (Q12 β-Ala): > 10000 nM
- Kd (Q12 D-Ala): > 10000 nM
- Kd (Y16 D-Ala): > 10000 nM
- Kd (M10 D-Ala): > 10000 nM
- Kd (F11 β-Ala): > 10000 nM
- Kd (M10 β-Ala): > 10000 nM
- Kd (F8 β-Ala): > 10000 nM
- Kd (P9 D-Ala): > 10000 nM
- Kd (P9 β-Ala): > 10000 nM
- Kd (F11 D-Ala): > 10000 nM

B2: Peptide 3 (RCPECVAFPMFQCHWYCG), phage display derived, cross-linked between cysteines (peptide)
peptide: RCPECVAFPMFQCHWYCG
modifications: not fully specified; cysteines cross-linked by a chemical linker (linker and isomer not named); N-terminal 5(6)-carboxyfluorescein; synthesised on rink amide AM resin
- Kd [1]: 23 nM

B3: VCPCPLFRAHGCSRFSCQ (peptide)
peptide: VCPCPLFRAHGCSRFSCQ
modifications: not fully specified; cross-linked between cysteines (linker not named); N-terminal 5(6)-carboxyfluorescein; synthesised on rink amide AM resin
- Kd [2]: 22 nM

B4: GCDLAHQPCPLYKCTKCP (peptide)
peptide: GCDLAHQPCPLYKCTKCP
modifications: not fully specified; cross-linked between cysteines (linker not named); N-terminal 5(6)-carboxyfluorescein; synthesised on rink amide AM resin
- Kd [3]: 10 nM

B5: Linear peptide 3 (RSPESVAFPMFQSHWYSG), all cysteines replaced by serines (peptide)
peptide: RSPESVAFPMFQSHWYSG-NH2
modifications: also: N-terminal 5(6)-carboxyfluorescein only in the fluorescence polarization assay version
- Kd [4]: 25.5 nM

B6: TCPLNRTQCPLYACTTCP (peptide)
peptide: TCPLNRTQCPLYACTTCP
modifications: not fully specified; cross-linked between cysteines (linker not named); N-terminal 5(6)-carboxyfluorescein; synthesised on rink amide AM resin
- Kd [5]: 34 nM

B7: SCQCPWDLFSQHSLSDCCD (peptide)
peptide: SCQCPWDLFSQHSLSDCCD
modifications: not fully specified; cross-linked between cysteines (linker not named); N-terminal 5(6)-carboxyfluorescein; synthesised on rink amide AM resin
- Kd [3]: 25 nM

B8: CTQSPCPLYDSHQCSCK (peptide)
peptide: CTQSPCPLYDSHQCSCK
modifications: not fully specified; cross-linked between cysteines (linker not named); N-terminal 5(6)-carboxyfluorescein; synthesised on rink amide AM resin
- Kd [2]: 38 nM

B9: VCQQTASRCPVWECQRCP (peptide)
peptide: VCQQTASRCPVWECQRCP
modifications: not fully specified; cross-linked between cysteines (linker not named); N-terminal 5(6)-carboxyfluorescein; synthesised on rink amide AM resin
- Kd [5]: 55 nM

B10: ACRTCPLFTCPSCG (peptide)
peptide: ACRTCPLFTCPSCG
modifications: not fully specified; cross-linked between cysteines (linker not named); N-terminal 5(6)-carboxyfluorescein; synthesised on rink amide AM resin
- Kd [6]: 89 nM
